Test system: Nlrc5 and Nlrc5 target genes
Test: Expression of antigen presentation genes / surface MHCI in B16 cells
Format: cell-based, mouse
Conditions: B16 cells stimulated 24 hr (FIGS. 13E-G)

B1: interferon-gamma: interferon gamma (R&D Systems) used to stimulate cells (protein, UniProt P01579 24-161, looked up)
Interferon gamma: QDPYVKEAENLKKYFNAGHSDVADNGTLFLGILKNWKEESDRKIMQSQIVSFYFKLFKNFKDDQSIQKSVETIKEDMNVKFFNSNKKKRDDFEKLTNYSVTDLNVQRKAIHELIQVMAELSPAAKTGKRKRSQMLFRG
With B1 as the molecule, how does the “expression of PSMB9 and surface expression of MHCI (H-2Kb)” value read?
The value was “increased”.

— patent US20230301998A1, “METHODS AND COMPOSITIONS FOR INDUCTION OF ANTITUMOR IMMUNITY” (Sanford Burnham Prebys Medical Discovery Institute, priority 2020, published 2023)
